US20120128639A1, “In Vitro Production Of Oligodendrocytes From Human Umbilical Cord Stem Cells” (UNIVERSITY OF CENTRAL FLORIDA RESEARCH FOUNDATION, INC., priority 2009, published 2012)

System: human multipotent progenitor cells (MLPCs) from umbilical cord
Settings: 3D environment; presence or absence in medium
Method: MLPCs were seeded on DETA-coated glass coverslips (18 mm) at a density of 4×10^3 cells/cm^2 in growth medium. After 3 days, at about 60% confluency, cells were incubated for 24 hours in pre-induction medium, consisting of DMEM, 15% FBS. FGF-2, EGF (20 ng/ml each, R & D Systems, Minneapolis, Minn.) and PDGF-AA (10 ng/ml, Chemicon International, Temecula, Calif.). To initiate differentiation, the pre-induction medium was removed, the cells were washed 2× with Hanks' balanced salts solution (Gibco BRL) and transferred to serum-free differentiation medium.
Construction of 3D Environment MLPCs were plated on DETA-coated glass coverslips (18 mm) in growth medium. At about 60% confluence, growth medium was replaced with pre-induction medium. […]
Phase-contrast images were taken with a commercial Nikon Coolpix 990 camera using the Zeiss Axiovert S100 microscope. Pictures were analyzed using Scion Image Software (Scion Corp., Frederick, Md.).
The morphological and immunocytochemical quantification was performed on undifferentiated stem cells or cells during various differentiation stages. […] All the marker-positive cells were counted, as well as the total number of cells in these views. At least three coverslips in each group were quantified and data were expressed as average±standard deviation (SD). Statistical differences between different experimental groups were analyzed by Student's t-test.

B1: EGF: growth factor in pre-induction and differentiation medium (protein, UniProt P01133 23-1207, looked up)
Pro-epidermal growth factor: PQHWSCPEGTLAGNGNSTCVGPAPFLIFSHGNSIFRIDTEGTNYEQLVVDAGVSVIMDFHYNEKRIYWVDLERQLLQRVFLNGSRQERVCNIEKNVSGMAINWINEEVIWSNQQEGIITVTDMKGNNSHILLSALKYPANVAVDPVERFIFWSSEVAGSLYRADLDGVGVKALLETSEKITAVSLDVLDKRLFWIQYNREGSNSLICSCDYDGGSVHISKHPTQHNLFAMSLFGDRIFYSTWKMKTIWIANKHTGKDMVRINLHSSFVPLGELKVVHPLAQPKAEDDTWEPEQKLCKLRKGNCSSTVCGQDLQSHLCMCAEGYALSRDRKYCEDVNECAFWNHGCTLGCKNTPGSYYCTCPVGFVLLPDGKRCHQLVSCPRNVSECSHDCVLTSEGPLCFCPEGSVLERDGKTCSGCSSPDNGGCSQLCVPLSPVSWECDCFPGYDLQLDEKSCAASGPQPFLLFANSQDIRHMHFDGTDYGTLLSQQMGMVYALDHDPVENKIYFAHTALKWIERANMDGSQRERLIEEGVDVPEGLAVDWIGRRFYWTDRGKSLIGRSDLNGKRSKIITKENISQPRGIAVHPMAKRLFWTDTGINPRIESSSLQGLGRLVIASSDLIWPSGITIDFLTDKLYWCDAKQSVIEMANLDGSKRRRLTQNDVGHPFAVAVFEDYVWFSDWAMPSVMRVNKRTGKDRVRLQGSMLKPSSLVVVHPLAKPGADPCLYQNGGCEHICKKRLGTAWCSCREGFMKASDGKTCLALDGHQLLAGGEVDLKNQVTPLDILSKTRVSEDNITESQHMLVAEIMVSDQDDCAPVGCSMYARCISEGEDATCQCLKGFAGDGKLCSDIDECEMGVPVCPPASSKCINTEGGYVCRCSEGYQGDGIHCLDIDECQLGEHSCGENASCTNTEGGYTCMCAGRLSEPGLICPDSTPPPHLREDDHHYSVRNSDSECPLSHDGYCLHDGVCMYIEALDKYACNCVVGYIGERCQYRDLKWWELRHAGHGQQQKVIVVAVCVVVLVMLLLLSLWGAHYYRTQKLLSKNPKNPYEESSRDVRSRRPADTEDGMSSCPQPWFVVIKEHQDLKNGGQPVAGEDGQAADGSMQPTSWRQEPQLCGMGTEQGCWIPVSSDKGSCPQVMERSFHMPSYGTQTLEGGVEKPHSLLSANPLWQQRALDPPHQMELTQ
modifications: Pro-epidermal growth factor
- need of the growth factor for process formation: not essential
